# Assay results published in patent US5827710, “DNA encoding the subunit of avian lactate dehydrogenase” (Oriental Yeast Co., Ltd., dated 1998).
# B1: type B subunit of chicken lactate dehydrogenase (recombinant, expressed in Saccharomyces cerevisiae from YRp1G-cLD-B) (enzyme)
# chain: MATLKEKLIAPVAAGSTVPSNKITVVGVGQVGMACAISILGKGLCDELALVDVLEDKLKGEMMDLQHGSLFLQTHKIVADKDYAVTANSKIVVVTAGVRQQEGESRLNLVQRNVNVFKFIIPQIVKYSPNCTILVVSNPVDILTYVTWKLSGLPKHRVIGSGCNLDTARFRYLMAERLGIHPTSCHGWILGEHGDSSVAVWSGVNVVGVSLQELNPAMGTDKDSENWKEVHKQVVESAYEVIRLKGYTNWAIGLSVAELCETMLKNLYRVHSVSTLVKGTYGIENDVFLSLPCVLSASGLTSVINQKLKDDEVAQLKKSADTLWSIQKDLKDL
# Molecular target: the molecule itself
# Test: gel filtration column chromatography (SMART system) of the purified recombinant protein: about 147,000 found, against about 36,000 calculated for each subunit
# From the text: 3) Determination of the molecular weight of the recombinant chicken LDH-B₄ protein As a result of gel filtration column chromatography analysis of the purified sample by a SMART system (made by Pharmacia), the molecular weight of the purified recombinant chicken LDH-B₄ protein was about 147,000 (FIG. 10). It is presumed that the subunits B of chicken LDH are combined to form a tetramer (theoretical molecular weight of about 140,000) because the molecular weight of each subunit B of chicken LDH is calculated at about 36,000 from its amino acid sequence.
protein,measurement,value
B1,binding result,binds
